Where a chain is given by its changes, count along the chain named. In names and notes the source's numbering stands.
B1: h26D3-Fab (humanized 26D3) (Fab, V domains shown)
VH: EVQLVQSGAEVKKPGSSVKVSCKASGYIFTDYNMDWVRQAPGQGLEWIGDINPDYDTTSYNEKFKGRATLTVDKSTSTAYMELSSLRSEDTAVYYCARGGYSGSSYYHPMDYWGQGTLVTVSS
VL: DIQMTQSPSSVSASVGDRVTITCKSSQSLLYSTNQKNYLAWYQQKPGKAPKLLIYWASTRESGVPSRFSGSGSGTDFTLTISSLQPEDFATYYCQQYFIYPRTFGQGTKVEIK
notes: His-tagged Fab
B2: h26D3 variant HC10 Fab (VH Y106A) (Fab, V domains shown)
VH: B1 VH with Y106A
VL: B1 VL
notes: Single mutant, His-tagged Fab
B3: 26D3 (mouse monoclonal antibody) (antibody, V domains shown)
VH: EVQLQQFGVELVKPGASVKISCKASGYIFTDYNMDWVKQSHGKSLEWIGDINPDYDTTSYNEKFKGKATLTVDKSSSTAYMELRSLTSEDTAVYYCARGGYSGSSYYHPMDYWGQGTSVTVSS
VL: DIVMSQSPSSLAVSVGEKITMSCKSSQSLLYSTNQKNYLAWYQQKPGQSPELLIYWASTRESGVPDRFTGSGSGTDFTLTISNVRAEDLAVYYCQQYFIYPRTFGGGTKLEIK
B4: 24B4 (mouse monoclonal antibody) (antibody, V domains shown)
VH: EVQLQQFGAELVKPGTSVKISCKASGYTFTDYNMDWVKQGHGKGLEWIGDINPNYDTTSYSQKFKGKATLTVDKSSSTAYMELRSLTSEDTAVYYCARSEAGNYYWYFDVWGAGTTVTVSS
VL: DIVMSQSPSSLAVSVGEKVTMSCKSSQSLLYSSNRKNYLAWYRQKPGQSPKLLIYWASTRESGVPDRFTGSGSGTDFTLTISSVKAEDLAVYSCQQYYNYPYTFGGGTKLEIK

Tests used:
[1] = target: T1, ectodomain of human TfR1 (His10-hTfR1; SEQ ID NO:74) (human, UniProt P02786 89-760); experiment: indirect ELISA on coated hTfR1 ectodomain (1 ug/ml), Fab 1:3 dilutions, anti-human IgG F(ab')2-HRP [lower panel]
T1 construct: His-tagged ectodomain; also called ectodomain of hTfR1
T1 sequence (P02786 other isoform, or with tags, fused parts or gaps): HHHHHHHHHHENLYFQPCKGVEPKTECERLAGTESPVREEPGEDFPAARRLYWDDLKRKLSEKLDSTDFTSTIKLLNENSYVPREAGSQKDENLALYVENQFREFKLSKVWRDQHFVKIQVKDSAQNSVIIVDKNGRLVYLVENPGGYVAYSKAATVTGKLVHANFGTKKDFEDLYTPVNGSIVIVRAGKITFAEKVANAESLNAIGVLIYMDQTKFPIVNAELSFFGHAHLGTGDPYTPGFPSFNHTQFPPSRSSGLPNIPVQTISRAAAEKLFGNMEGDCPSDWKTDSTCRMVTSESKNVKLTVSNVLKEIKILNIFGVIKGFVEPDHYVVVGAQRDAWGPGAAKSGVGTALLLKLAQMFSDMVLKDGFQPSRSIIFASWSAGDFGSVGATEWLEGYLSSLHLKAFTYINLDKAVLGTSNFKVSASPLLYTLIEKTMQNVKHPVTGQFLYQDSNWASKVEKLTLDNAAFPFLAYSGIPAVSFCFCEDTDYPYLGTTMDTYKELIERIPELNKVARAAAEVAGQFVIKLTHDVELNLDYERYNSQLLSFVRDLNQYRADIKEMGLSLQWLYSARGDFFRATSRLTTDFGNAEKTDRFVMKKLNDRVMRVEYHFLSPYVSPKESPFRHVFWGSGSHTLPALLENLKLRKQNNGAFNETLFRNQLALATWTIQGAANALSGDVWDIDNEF
Description: For the indirect ELISA, half area 96-well plates (Corning, #3690) were coated with 1 μg/ml recombinant ectodomain of hTfR1 (SEQ ID NO:74) in PBS overnight at 4° C. The coated plates were blocked using Pierce protein-free blocking solution (Thermo Fisher Scientific, #37572) for 1 h at room temperature with shaking and washed four times in PBS containing 0.1% TWEEN-20. Serial dilutions (1:3) of various expressed constructs in incubation buffer (1% BSA, 0.1% TWEEN-20 in PBS) were incubated for 1 h at room temperature. […] Following four wash steps, K-Blue® Aqueous TMB substrate (Neogen, #331177) was added to the wells for 15 min at room temperature before the reaction was stopped with 1:1 dilution of 0.5 M H₂SO₄. The optical density at 450 nm was recorded (Spark, Tecan) and background signal was subtracted before analysis.

[2] = target: T2, chimeric TfR1 consisting of human protease like domain grafted on mouse TfR1 ectodomain (SEQ ID NO:78) (human/mouse chimera); experiment: indirect ELISA on coated h/m protease-like domain chimera (1 ug/ml), IgG dilution series; x axis printed 'TfR (ng/ml)' [D]
T2 construct: His-tagged; also called h/m protease-like domain chimera
T2 chain: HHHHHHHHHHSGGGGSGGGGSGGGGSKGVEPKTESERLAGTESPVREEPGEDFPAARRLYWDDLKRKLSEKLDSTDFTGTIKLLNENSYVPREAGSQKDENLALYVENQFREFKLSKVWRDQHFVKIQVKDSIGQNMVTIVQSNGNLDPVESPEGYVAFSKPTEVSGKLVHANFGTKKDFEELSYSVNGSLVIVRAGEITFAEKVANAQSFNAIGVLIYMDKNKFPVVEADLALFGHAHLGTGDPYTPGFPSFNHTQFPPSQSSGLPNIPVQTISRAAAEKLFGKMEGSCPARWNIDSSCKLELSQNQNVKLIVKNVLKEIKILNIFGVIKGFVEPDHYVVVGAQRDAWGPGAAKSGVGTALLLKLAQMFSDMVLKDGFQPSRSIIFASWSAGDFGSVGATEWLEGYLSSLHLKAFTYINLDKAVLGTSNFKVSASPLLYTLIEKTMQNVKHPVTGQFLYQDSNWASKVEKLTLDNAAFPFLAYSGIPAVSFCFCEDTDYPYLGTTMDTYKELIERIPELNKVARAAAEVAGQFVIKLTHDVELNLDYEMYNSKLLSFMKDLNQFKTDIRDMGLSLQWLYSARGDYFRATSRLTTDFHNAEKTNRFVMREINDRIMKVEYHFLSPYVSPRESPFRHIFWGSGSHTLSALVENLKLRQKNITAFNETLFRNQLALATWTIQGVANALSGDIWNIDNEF
Description: Plasma samples serially diluted from a starting dilution of 1/450 or hybridoma supernatants diluted 1/2 were added to the plates (50 μl/well; dilution buffer: PBS with 0.1% BSA and 0.05% TWEEN®-20) and incubated for 2 h at room temperature and then the plates were washed four times. […] After another wash (as above), 50 μl/well TMB substrate (K-Blue® Aqueous, Neogen) was added, and the reaction was stopped after 10-15 min with 50 μl/well of 0.5 M H₂SO₄. The optical density at 450 nm was read using a plate reader (Tecan). The endpoint titers were defined as the dilution above the average of the blank wells (background) plus 3 standard deviations of the blank wells.
The coated plates were then blocked. Dilution series of mouse IgG of the analyzed antibodies were prepared in PBS and incubated on the ELISA plates. Unbound antibodies were then washed off before incubating wells with a HRP-conjugated secondary, anti-mouse-IgG for 1 h. Plates were then washed again before addition of HRP substrate TMB for development and detection of antibody binding to the wells. TMB development was stopped by adding 0.5 M H₂SO₄ to the wells and ELISA responses measured as the OD at 450 nm in an ELISA plate reader.

Row | Binder | EC50 (read off the curve) [1] [nM] | binding result [2]
1 | B1 | ~400 | –
2 | B2 | ~1000 | –
3 | B3 | – | binds
4 | B4 | – | binds

Reference: patent publication US20260035475A1 (BIOARCTIC, published 2026)
